Publication PMC7743911 (Nature communications, 2015)
Positions count from the first letter of the chain named. Several values for one entry are separate records, joined by “and”; a condition that tells them apart may be missing. Identical values can stand only once. Non-standard residues stand in square brackets, D forms with d. No end group written: not given here. pY = N[C@@H](Cc1ccc(OP(=O)(O)O)cc1)C(=O)O

What was measured:
[1] = molecular target: T1, STAT5B wild type (residues 128 to 717), non-phosphorylated (human, UniProt P51692 128-717); experiment: SPR
T1 sequence (looked up): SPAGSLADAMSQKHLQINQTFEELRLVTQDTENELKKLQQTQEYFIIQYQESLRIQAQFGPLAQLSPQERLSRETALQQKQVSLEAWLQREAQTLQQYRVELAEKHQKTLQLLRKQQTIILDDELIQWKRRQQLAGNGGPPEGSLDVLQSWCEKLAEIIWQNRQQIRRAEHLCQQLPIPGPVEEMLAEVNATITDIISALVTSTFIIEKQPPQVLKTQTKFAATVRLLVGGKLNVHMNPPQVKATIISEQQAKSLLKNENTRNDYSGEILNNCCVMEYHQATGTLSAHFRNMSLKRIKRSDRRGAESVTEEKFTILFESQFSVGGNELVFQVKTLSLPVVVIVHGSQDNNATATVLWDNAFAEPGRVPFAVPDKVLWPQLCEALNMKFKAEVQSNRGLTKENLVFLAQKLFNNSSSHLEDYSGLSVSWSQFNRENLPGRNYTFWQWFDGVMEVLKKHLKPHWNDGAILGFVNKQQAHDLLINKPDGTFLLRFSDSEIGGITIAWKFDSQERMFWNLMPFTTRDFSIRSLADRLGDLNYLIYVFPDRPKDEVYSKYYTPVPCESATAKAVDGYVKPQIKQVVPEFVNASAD

[2] = molecular target: T2, STAT5B N642H mutant (residues 128 to 717), non-phosphorylated (human, UniProt P51692 128-717, N642H); experiment: SPR
T2 sequence (looked up): T1 sequence (looked up) with N515H

Kd [1]: 15.6 µM and 14 µM | Kd [2]: 3.23 µM and 2.9 µM
Binder: KAVDG[pY]VKPQI [STAT5B phosphopeptide KAVDG(p)YVKPQI]
